Target: full-length His-PCAF fusion protein (human, UniProt Q92831 1-832)
Assay: pull-down

Chain of full-length His-PCAF fusion protein (Q92831 whole entry, the tested form may be a part): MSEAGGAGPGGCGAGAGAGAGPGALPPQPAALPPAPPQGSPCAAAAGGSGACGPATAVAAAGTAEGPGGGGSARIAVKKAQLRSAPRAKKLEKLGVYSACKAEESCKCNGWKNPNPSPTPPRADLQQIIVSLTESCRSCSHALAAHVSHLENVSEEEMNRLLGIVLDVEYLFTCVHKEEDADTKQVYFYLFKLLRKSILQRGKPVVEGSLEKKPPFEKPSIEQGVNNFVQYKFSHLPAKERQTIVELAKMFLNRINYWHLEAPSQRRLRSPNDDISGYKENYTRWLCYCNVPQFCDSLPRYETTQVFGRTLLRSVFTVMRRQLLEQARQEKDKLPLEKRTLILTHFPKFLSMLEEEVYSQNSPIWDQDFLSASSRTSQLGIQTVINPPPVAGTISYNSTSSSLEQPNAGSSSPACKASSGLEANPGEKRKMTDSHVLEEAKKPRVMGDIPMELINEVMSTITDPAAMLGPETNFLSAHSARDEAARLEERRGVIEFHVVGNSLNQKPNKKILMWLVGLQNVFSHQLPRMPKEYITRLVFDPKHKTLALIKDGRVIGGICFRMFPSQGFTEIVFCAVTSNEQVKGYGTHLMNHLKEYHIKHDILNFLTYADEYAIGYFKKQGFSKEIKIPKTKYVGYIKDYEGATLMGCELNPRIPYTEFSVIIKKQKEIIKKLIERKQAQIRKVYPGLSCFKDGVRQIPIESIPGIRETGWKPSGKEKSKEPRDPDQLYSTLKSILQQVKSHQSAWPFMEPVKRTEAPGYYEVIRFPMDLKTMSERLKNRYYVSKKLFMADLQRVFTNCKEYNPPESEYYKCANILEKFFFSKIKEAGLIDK

B1: GST-EZH2 SET domain (610-746) (domain or fragment)
chain: not shown
- binding result: binds

B2: GST-EZH2 N-terminal domain (1-522) (domain or fragment)
chain: MGQTGKKSEKGPVCWRKRVKSEYMRLRQLKRFRRADEVKSMFSSNRQKILERTEILNQEWKQRRIQPVHILTSVSSLRGTRECSVTSDLDFPTQVIPLKTLNAVASVPIMYSWSPLQQNFMVEDETVLHNIPYMGDEVLDQDGTFIEELIKNYDGKVHGDRECGFINDEIFVELVNALGQYNDDDDDDDGDDPEEREEKQKDLEDHRDDKESRPPRKFPSDKIFEAISSMFPDKGTAEELKEKYKELTEQQLPGALPPECTPNIDGPNAKSVQREQSLHSFHTLFCRRCFKYDCFLHPFHATPNTYKRKNTETALDNKPCGPQCYQHLEGAKEFAAALTAERIKTPPKRPGGRRRGRLPNNSSRPSTPTINVLESKDTDSDREAGTETGGENNDKEEEEKKDETSSSSEANSRCQTPIKMKPNIEPPENVEWSGAEASMFRVLIGTYYDNFCAIARLIGTKTCRQVYEFRVKESSIIAPAPAEDVDTPPRKKKRKHRLWAAHCRKIQLKKDGSSNHVYNYQP
- binding result: binds

— paper PMC4402543 (Nucleic Acids Research, 2015)
